Test results: publication PMC4889933 (Nucleic Acids Research, 2016)

T1: LigD protein of B. subtilis (LigD_(Bsub)), C-terminal His6 (B. subtilis, UniProt O34398 1-611)
T1 sequence (looked up): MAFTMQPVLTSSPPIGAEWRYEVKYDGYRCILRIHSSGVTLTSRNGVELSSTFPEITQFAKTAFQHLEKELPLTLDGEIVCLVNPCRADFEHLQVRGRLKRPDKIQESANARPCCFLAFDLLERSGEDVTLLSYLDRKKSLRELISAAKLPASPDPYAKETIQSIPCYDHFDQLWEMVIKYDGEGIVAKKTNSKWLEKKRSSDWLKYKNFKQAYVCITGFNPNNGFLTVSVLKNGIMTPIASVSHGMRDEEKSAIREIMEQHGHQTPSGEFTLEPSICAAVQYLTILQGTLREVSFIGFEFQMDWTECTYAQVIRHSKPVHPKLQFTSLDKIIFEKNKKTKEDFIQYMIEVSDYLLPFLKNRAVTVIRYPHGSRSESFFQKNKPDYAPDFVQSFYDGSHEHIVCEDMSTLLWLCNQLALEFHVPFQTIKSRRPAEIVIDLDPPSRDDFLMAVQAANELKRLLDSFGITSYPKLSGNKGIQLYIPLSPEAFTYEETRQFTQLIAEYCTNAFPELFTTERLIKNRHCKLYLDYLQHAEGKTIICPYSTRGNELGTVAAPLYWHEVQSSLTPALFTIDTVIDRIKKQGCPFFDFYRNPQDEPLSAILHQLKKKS

B1: KuΔexCter, Ku_(Bsub) truncated of the extended Cter (M18 to P277 of NP_389224.1), N-terminal His6 (domain or fragment, B. subtilis 168, UniProt O34859 18-277, looked up)
chain: MHTMWKGSISFGLVNIPIKLYAATEDKDIKLRSLHKEDHAPIKYEKVCTNCEKTLSPDEIVKGYEYVKGKYVVLTDEDLKSLKQEHEEKAVEIVDFVQLQEIDPIYFNRSYFVGPGDNGTKAYTLLREALRSTGKIGIANMTIRSKQQLAILRVYENCIVMESIHYPDEVRSAAQVPGVPDQSNVNDKELQTAITLIDELTAKFEPEKYEDTYRQALLQRVNDKLENKETAVTPDKAPPREDVIDLVSALQASIDRTRRP
B2: Ku core, Ku_(Bsub) truncated of the entire C-terminal domain (M18 to P256 of NP_389224.1), N-terminal His6 (domain or fragment, B. subtilis 168, UniProt O34859 18-256, looked up)
chain: MHTMWKGSISFGLVNIPIKLYAATEDKDIKLRSLHKEDHAPIKYEKVCTNCEKTLSPDEIVKGYEYVKGKYVVLTDEDLKSLKQEHEEKAVEIVDFVQLQEIDPIYFNRSYFVGPGDNGTKAYTLLREALRSTGKIGIANMTIRSKQQLAILRVYENCIVMESIHYPDEVRSAAQVPGVPDQSNVNDKELQTAITLIDELTAKFEPEKYEDTYRQALLQRVNDKLENKETAVTPDKAPP

Tests used:
[1] = molecular target: T1, LigD protein of B. subtilis …; assay: SPR
cross-linking = molecular target: the molecule itself; assay: cross-linking

| Binder | Kd [1] | stoichiometry N (cross-linking) |
| --- | --- | --- |
| B1 | 11 µM | 2 |
| B2 | – | 2 |
